T1: peptide consisting of amino acids 22-35 of Abeta (UniProt P05067 693-706)
T1 construct: range 22-35; Range is counted on the Abeta peptide; also called Abeta22-35
T1 peptide (looked up): EDVGSNKGAIIGLM

T2: Abeta1-11 (UniProt P05067 672-682)
T2 construct: range 1-11; Range is counted on the Abeta peptide
T2 peptide (looked up): DAEFRHDSGYE

T3: Abeta17-28 (UniProt P05067 688-699)
T3 construct: range 17-28; Range is counted on the Abeta peptide
T3 peptide (looked up): LVFFAEDVGSNK

B1: antibody NI-103 (antibody, V domains shown)
VH: EVQLHQSGPELVKPGASVKISCKTSGYTFTEYTMHWVKQSHGKSLEWIGGVNPYNDNTSYIRKLQGKVTLTVDRSSSTAYMELRSLTSEDSAVYFCARYGGLRPYYFPMDFWGQGTSVTVSS
VL: QVVLSQSPAILSASPGERVTLTCRASSSVNYMHWYQQKPGSSPKAWIYATSNLASGVPDRFSASGSGTSYSLTISRVEAEDAATYYCQQWRTNPPTFGAGTKLELKR
notes: detected in ELISA with anti-mouse IgG; treated as the same molecule
B2: Abeta29-40 fragment (peptide)
peptide: GAIIGLMVGGVV
modifications: not fully specified

In assay [1] the target is T1, peptide consisting of amino acids 22-35 …. Kind of assay: ELISA, peptide coated at 1 ug/ml. As for the experimental part: (§1) 96 well half area Microplates (Corning) were coated with synthetic Abeta-peptide preparations at a standard concentration of 1 μg/ml in coating buffer (15 mM Na₂CO₃, 35 mM NaHCO₃, pH 9.42) overnight at 4° C. Plates were washed and non-specific binding sites were blocked for 1 h at RT with PBS containing 2% BSA (Sigma, Buchs, Switzerland).

For the assay “Abeta29-40 fragment”, the target named is B2. Kind of assay: ELISA, peptide coated at 1 ug/ml. As for the experimental part: as §1
The target of another assay is T4, Abeta1-28 (UniProt P05067 672-699).
T4 construct: range 1-28; Range is counted on the Abeta peptide
Kind of assay: ELISA, peptide coated at 1 ug/ml. As for the experimental part: as §1

A further assay deals with T2, Abeta1-11. Description: ELISA, peptide coated at 1 ug/ml. How it is done: as §1
A general note: ELISA stands for enzyme-linked immunosorbent assay.

Another assay deals with T5, Abeta1-38 (UniProt P05067 672-709).
T5 construct: range 1-38; Range is counted on the Abeta peptide; also called Abeta fragment consisting of amino acids 1-38
Kind of assay: ELISA, peptide coated at 1 ug/ml. As for the experimental part: as §1

The target of a further assay is T3, Abeta17-28. Kind of assay: ELISA, peptide coated at 1 ug/ml. How it is done:
as §1

In assay [2] the target is T6, human wild type APP fused at the intracellular C-terminus to the yellow fluorescent protein variant Citrine, … (human, UniProt P05067 18-770).
T6 construct: whole, on cells; also called cellular full-length APP; cell-surface APP; not shown: yellow fluorescent protein variant Citrine at the intracellular C-terminus
Kind of assay: immunofluorescence on live HEK 293 cells expressing human APP-Citrine, 30 min at 4 C. How it is done: HEK 293 cells were transiently transfected with a vector that expresses human wild type APP fused at the intracellular C-terminus to the yellow fluorescent protein variant Citrine. 24 hours after transfection the cells were incubated with human recombinant antibodies or control antibodies at 4° C. for 30 minutes. After a washing step the cell were fixed and surface-bound antibody was detected using Cy-3-labeled secondary antibodies to human or mouse IgG (Jackson ImmunoResearch). Analysis of fluorescence was performed on a confocal microscope (Leica).
Citrin-positive signals indicate APP-expressing cells.

The target in the assay “antibody NI-103” is B1. Kind of assay: competition ELISA, peptide at 1 µM in solution against coated Abeta1-42. As for the experimental part: as §1

Where no end group is shown, it is not given here.

Regarding B1, the binding result in assay [1] is “no binding”; with Abeta29-40 fragment it was “binds”; with Abeta1-28 it was “no binding”; in the assay with Abeta1-11, “no binding”; with Abeta1-38 it was “no binding”; in the assay with Abeta17-28, “no binding”. For the same molecule, the binding result in assay [2] is reported as “no binding”.
For the molecule B2, the binding result with antibody NI-103 is “binds”.

The values are drawn from patent publication US20100239570A1 (published 2010).
